Data as given in US20230212266A1 (FRED HUTCHINSON CANCER CENTER, published 2023).

Assays:
[1] = target: T1, SARS-CoV-2 receptor binding domain (RBD) (SARS-CoV-2, UniProt P0DTC2 319-591); assay: BLI; mAb loaded on anti-human Fc probe, dipped in antigen
[2] = target: T1, SARS-CoV-2 receptor binding domain (RBD); assay: BLI: mAb on anti-human Fc probe, dipped in the antigen
[3] = target: T1, SARS-CoV-2 receptor binding domain (RBD); assay: BLI, mAb on anti-human Fc probe, antigen in solution
[4] = target: T1, SARS-CoV-2 receptor binding domain (RBD); assay: BLI: mAb on anti-human Fc probe, dipped in the antigen; remark: listed apart in the source
[5] = target: T1, SARS-CoV-2 receptor binding domain (RBD); assay: as above; remark: listed apart in the source
[6] = target: T1, SARS-CoV-2 receptor binding domain (RBD); assay: as above; remark: listed apart in the source
[7] = target: T1, SARS-CoV-2 receptor binding domain (RBD); assay: BLI, mAb on anti-human Fc probe, antigen in solution; remark: listed apart in the source
[8] = target: T1, SARS-CoV-2 receptor binding domain (RBD); assay: BLI: mAb on anti-human Fc probe, dipped in the antigen; remark: listed apart in the source
[9] = target: T1, SARS-CoV-2 receptor binding domain (RBD); assay: as above; remark: listed apart in the source

| Binder | binding result [1] | other results |
| --- | --- | --- |
| CV2-75 (antibody, V domains shown) VH: QVQLQESGPGLVKPSETLSLTCTVSGGSISSYYWSWIRQPPGKGLEWIGYVYYSGSTNYNPSLKSRVTISVDTSKNEFSLKLSSVTAADTAVYYCASSQRPDGNLYYFDYWGQGTLVTVSS VL: SYVLTQPPSVSVAPGQTARITCGGNNIGSKTVHWYQQKPGQAPVLVVYDDSDRPSGIPERFSGSNSGNTATLTISRVEAGDEADYYCQVWDSSSDHYVFGTGTKVTVL | binds |  |
| CV2-66 (antibody, V domains shown) VH: EVQLVESGGGLVQPGRSLRLSCTASGFTFGDYAMSWFRQAPGKGLEWVGFIRSKAYGGTTEYAASVKGRFTISRDDSKSIAYLQMNSLKTEDTAVYYCTRVHHCSGGSCYGYYFDYWGQGTLVTVSS VL: EIVMTQSPATLSVSPGERATLSCRASQSVSSNLAWYQQKPGQAPRLLIYGASTRATGIPARFSGSGSGTEFTLTISSLQSEDFAVYYCQQYNNWVTFGGGTKVEIK | binds |  |
| CV2-56 (antibody, V domains shown) VH: QVQLVESGGGVVQPGNSLRLSCVASGFKFSSSAMHWVRQAPGKGLEWVAIIWFHGNTKFYGDFVKGRFTVSRDNSNNTLHLQMNSLRAEDTAVYHCARASSDYGGAFDIWGQGTMVTVSS VL: EIVMTQSPATLSVSLGERATLSCRASQSVTSSLAWYQHKPGQAPRLLIYGASTRATGIPARFSGSGSGTEFTLTISSLQSEDFAVYFCQQYNNWPPWTFGQGTKVEVT |  | binding result [2]: no binding |
| CV43 (antibody, V domains shown) VH: QVQLVESGGGVVQPGRSLRLSCAASGFTFSSYAMHWVRQAPGKGLEWVAVISYDGSNKYYADSVKGRFTISRDNSKNTLYLQMNSLRAEDTAVYYCARVTVVHFDYWGQGTLVTVSS VL: NFMLTQPHSVSESPGKTVTISCTGSSGSIASNYVQWYQQRPGSAPTTVIYEDNQRPSGVPDRFSGSIDSSSNSASLTISGLKTEDEADYYCQSYDSSNWVFGGGTKLTVL | binds |  |
| CV2-7 (antibody, V domains shown) VH: EVQLVQSGAEVKKPGESLKISCKGSGNSFTSYWIGWVRQMPGKGLEWMGIIYPGDSDTRYSPSFQGQVTISADKSISTAYLQWSSLKASDTAMYYCARHRNYDILTGYRYYFDYWGQGTLVTVSS VL: not shown | binds |  |
| CV30 (antibody, V domains shown) VH: EVQLVESGGGLIQPGGSLRLSCAASGVIVSSNYMSWVRQAPGKGLEWVSVIYSGGSTYYADSVKGRFTISRDNSKNTLYLQMNSLRAEDTAVYYCARDLDVSGGMDVWGQGTTVTVSS VL: not shown | binds |  |
| CV11 (antibody, V domains shown) VH: QVQLQESGPGLVKPSQTLSLTCTVSGGSISSGGYYWSWIRQHPGKGLEWIGYIYYSGSTYYNPSLKSRVTISVDTSKNQFSLKLSSVTAADTAVYYCARETTGHFDYWGQGTLVTVSS VL: EIVLTQSPATLSLSPGERATLSCRASQSVSSYLAWYQQKPGQAPRLLIYDASNRATGIPARFSGSGSGTDFTLTISSLEPEDFAVYYCQQRSNWPPIFTFGPGTKVDIK |  | binding result [3]: no binding |
| CV2-57 (antibody, V domains shown) VH: QVQLVQSGAEVKKPGASVKVSCKASGYNFISYGISWVRQAPGQGLEWMGWISAYNGNTNYAQKLQGRVTMTTDTSTSTAYMELRSLRSDDTAVYYCARVRIFGVVIIVDTAMVLDYWGQGTLVTVSS VL: EIVLTQSPATLSLSPGERATLSCRASQSVSSYLAWYQQKPGQAPRLLIYDASNRATGIPARFSGSGSGTDFTLTISSLEPEDFAVYYCQQRSNWPPRLTFGGGTKVEIK |  | binding result [4]: no binding |
| CV2-54 (antibody, V domains shown) VH: QVQLVQSGAEVKKPGSSVKVSCKASGGTFSSYTISWVRQAPGQGLEWMGGIIPIFGTANYAQNFQGRVTITADESTSTAYMELSSLRSEDTAVYYCARVSYYDSSGYYTDYWGQGTLVTVSS VL: EIVLTQSPATLSLSPGERATLSCRASQSVSSFLAWYQQKPGQAPRLLIYDASNRATGIPARFSGSGSGTDFTLTINSLEPEDFAVYYCQQRSNWPPEYTFGQGTKLEIK |  | binding result [5]: no binding |
| CV2-53 (antibody, V domains shown) VH: QVQLVQSGAEVKKPGSSVKVSCKASGGTFTSYAITWVRQAPGQGLEWMGGIIPIFGTANYAQKFQGRVTITADESTSTAYMELSSLRSEDTAVYYCARVGAYDSSGYYQDLWGRGTLVTVSS VL: EIVLTQSPATLSLSPGERATLSCRASQSVSSYLAWYQQKPGQAPRLLIYDASNRATGIPARFSGSGSGTDFTLTISSLEPEDFAVYYCQQRSNWPPVITFGQGTRLEIK |  | binding result [6]: no binding |
| CV5 (antibody, V domains shown) VH: QVQLVQSGAEVKKPGASVKVTCKASGYTFTSYYLHWVRQAPGQGLEWMGIINPSGGTTSYAQKFQGRVTMTRDTSTSTVYMELSSLRSEDTAVYYCARAGRRYSSSDDGAFDIWGQGTMVTVSS VL: not shown | binds |  |
| CV2-41 (antibody, V domains shown) VH: QVQLQQWGAGLLKPSETLSLTCAVYGGSFSGYYWSWIRQPPGKGLEWIGEINHSGSTNYNPSLKSRVTISVDTSTNQFSLKLSSVTAADTAVYYCARRVHYDILTGFYGGALITRAFDIWGQGTMVTVSS VL: not shown | binds |  |
| CV1 (antibody, V domains shown, expressed as IgG) VH: QVQLQESGPGLVKPSETLSLTCTVSGYSISSGYYWGWIRQPPGKGLEWIGSIYHSGSTYYNPSLKSRVTISVDTSKNQFSLKLSSVTAADTAVYYCARTPLSLRLRYNWYFDLWGRGTLVTVSS VL: not shown |  | binding result [7]: no binding |
| CV2-65 (antibody, V domains shown) VH: QVQLQESGPGLVKPSETLSLTCTVSGGSISSYYWSWIRQPAGKGLEWIGRIYTSGSTNYNPSLKSRVTMSVDTSKNQFSLKLSSVTAADTAVYYCAREDSYGSGSTGAFDIWGQGTMVTVSS VL: SYELTQPPSVSVSPGQTARITCSGDALPKQYAYWYQQKPGQAPVLVIYKDSERPSGIPERFSGSSSGTTVTLTISGVQAEDEADYYCQSADSSGTYVFGTGTKVTVL | binds |  |
| CV2-52 (antibody, V domains shown) VH: QVQLVESGGGVVQPGRSLRLSCAASGFTFSSYAMHWVRQAPGKGLEWVAVISYDGINKYYADSVKGRFTISRDSSKNTLYLQMNSLRAEDTAVYYCARGGVGYQLLFGNDWFDPWGQGTLVTVSS VL: QSALTQPASVSGSPGQSITISCTGTSSDVGGYNYVSWYQQHPGKAPKLMIYEVSNRPSGVSNRFSGSKSGNTASLTISGLQAEDESDYYCSSYTTSSTLYVFGTGTKVTVL |  | binding result [8]: no binding |
| CV2-48 (antibody, V domains shown) VH: QLQLQESGPGLVKPSETLSLTCTVSGGSISSSSYYWGWIRQPPGKGLEWIGNIYYSGITYYNPSLKSRVTISVDTSKNQFSLKLSSVTAADTAVYYCARQLWGYYDSSGYYAFDIWGQGTMVTVSS VL: QSALTQPASVSGSPGQSITISCTGTSSDVGSYNLVSWYQQHPGKAPKLMIYEGSKRPSGVSNRFSGSKSGNTASLTISGLQAEDEAAYYCCSYVGSSTYVVFGGGTKLTVL |  | binding result [9]: binds |
| CV2-71 (antibody, V domains shown) VH: EVQLLESGGGLGQPGGSLRLSCAASGFTFSNYAMSWVRQAPGKGLEWVSVISGSGGSTYYADSVKGRFTISRDNSKNTLYLQMNSLRAEDTAVYYCAKAGAVGYYDSNGYYYDVDYYYGMDVWGQGTTVTVSS VL: QSVLTQPPSVSGAPGQRVTISCTGSSSNIGAGYDVHWYQQLPGTAPKLLIYGNSNRPSGVPDRFSGSKSGTSASLAITGLQAEDEADYYCQSYDSSLSGYVFGTGTKVTVL | binds |  |
